Source: publication PMC8993888

Tests used:
[1] = target: Ag43b α-domain (α^43b) from UPEC CFT073 (E. coli CFT073 (UPEC)); test: AUC; sedimentation velocity; α^43b sample concentrated above 30 mg/ml prior to AUC analysis (Supplementary Fig. 7); monomer to dimer
[2] = target: Ag43^EDL933 α-domain (α^43_EDL933), complete passenger domain with the autochaperone domain, from EHEC O157:H7 EDL933 (E. coli O157:H7 EDL933 (EHEC)); test: AUC; sedimentation velocity, 2.2 mg/mL, 25 mM HEPES, 150 mM NaCl, pH 7.0, 20 °C, 40,000 rpm, absorbance at 285 nm, c(s) analysis; monomer to dimer
[3] = target: Ag43^UTI89 α-domain (α^43_UTI89), complete passenger domain with the autochaperone domain, from UPEC UTI89 (E. coli UTI89 (UPEC)); test: as above
[4] = target: Ag43a α-domain (α^43a) from UPEC CFT073 (E. coli CFT073 (UPEC)); test: as above

“Ag43b α-domain (α^43b) from UPEC CFT073 (domain or fragment)” gave a stoichiometry N [1] of 2.

“Ag43^EDL933 α-domain (α^43_EDL933), complete passenger domain with the autochaperone domain, from EHEC O157:H7 EDL933 (domain or fragment)” showed a stoichiometry N [2] of 2.

“Ag43^UTI89 α-domain (α^43_UTI89), complete passenger domain with the autochaperone domain, from UPEC UTI89 (domain or fragment)” gave a stoichiometry N [3] of 2.

For “Ag43a α-domain (α^43a) from UPEC CFT073 (domain or fragment)”, the stoichiometry N [4] was 2.
